US20160346402A1

Target: TPP-2305, hTNFRSF12 amino acids a28-80 (recombinant human TWEAKR protein) (human) (UniProt Q9NP84)
Test: SPR (Biacore T100), antibody captured, TWEAKR TPP-2305 as analyte, 1:1 model

Kd: 2.9 nM
koff: 0.011 s⁻¹
kon: 3.8e+06 M⁻¹ s⁻¹
B1: ITEM-1 (antibody, from another filing, V domains shown)
VH: EVKLEESGGGLVQPGGSMKLSCVASGFSFSNYWMNWVRQSPEKGLEWVAEIRLKSNNYATHYAESVKGRFTISRHDSKSSVYLQMNNLRAEDTGIYYCTRAYADYFDYWGQGTTLTVSS
VL: DIVLTQSPASLVVSLGQRATISCRASQSVSTSTYSYMHWYQQKPGQPPKILIKYASNLESGVPARFSGSGSGTDFTLNIHPVEEEDTATYYCQHSWEIPYTFGGGTKLEIKR
